Source: publication PMC4398509, “A new regulatory mechanism for bacterial lipoic acid synthesis”
Numbering of substitutions follows the chain as printed.

Assays:
[1] = target: CRP_ec (cAMP receptor protein) (Escherichia coli, UniProt P0ACJ8 1-210); test: EMSA; cAMP (20 pmol); EMSA: 0.2 pmol DIG probe, CRP (2 pmol in Fig. 6), 20 pmol cAMP, Roche binding buffer (composition and pH not given), 20 uL (15 uL in Fig. S2), room temperature; details: protein: recombinant; tags: His6 (pET28 construct, nickel purified); chain copies: 2; label: DIG-ddUTP 3' end (terminal transferase); blunt
[2] = target: CRP_she (cAMP receptor protein) (UniProt Q8EJ49 1-211); test: as above; details: protein: recombinant; tags: N-terminal His6 (pET28a); chain copies: 2; label: DIG-ddUTP 3' end (terminal transferase); blunt

B1: lipBA_she (dsDNA)
DNA 1: CAAGGTCATAAAGTGTGATCTATCTTACATTTATGGCCAAGAG
DNA 2: CTCTTGGCCATAAATGTAAGATAGATCACACTTTATGACCTTG
B1: binds [1]; binds [2].

B2: ybeD_yp (dsDNA)
DNA 1: ATTGGCCCCATATTGTGATTAATCTTATATTGCAAATAAGCT
DNA 2: AGCTTATTTGCAATATAAGATTAATCACAATATGGGGCCAAT
B2: no binding [1].

B3: ybeD_st2 (dsDNA)
DNA 1: CTGTGGCGGGAGTTGTTATTTTTTTTACGTAATGCCGGAGCT
DNA 2: AGCTCCGGCATTACGTAAAAAAAATAACAACTCCCGCCACAG
B3: no binding [1].

B4: ybeD_ec (dsDNA)
DNA 1: AAACACTTGAAAGTGTAATTTCCGTCCCCATATACTAAGCAT
DNA 2: ATGCTTAGTATATGGGGACGGAAATTACACTTTCAAGTGTTT
B4: no binding [1].

B5: ybeD_kp (dsDNA)
DNA 1: B4 DNA 1 with A1G, A17G, G24A, A38T, G39T
DNA 2: B4 DNA 2 with C4A, T5A, C19T, T26C, T42C
B5: binds [1].

B6: ybeD_st1 (dsDNA)
DNA 1: B4 DNA 1 with A1G, A5G, A17G, C22T, A38T
DNA 2: B4 DNA 2 with T5A, G21A, T26C, T38C, T42C
B6: binds [1].

B7: ybeD_es (dsDNA)
DNA 1: B4 DNA 1 with A1G, A17G, G24A, A38G, C40T
DNA 2: B4 DNA 2 with G3A, T5C, C19T, T26C, T42C
B7: binds [1].

B8: fadD_ec (dsDNA)
DNA 1: GTAAAGATAAAAATAAATAGTGACGCGCTTCGCAACCTTTTCGTTGGG
DNA 2: CCCAACGAAAAGGTTGCGAAGCGCGTCACTATTTATTTTTATCTTTAC
B8: binds [1]; binds [2].

B9: lipA_ec (dsDNA)
DNA 1: ACGGAGTAATAGATGTTATCCGTAATGCATTTTGAAAAAGTA
DNA 2: TACTTTTTCAAAATGCATTACGGATAACATCTATTACTCCGT
B9: no binding [1].
